{"source": "patent US8449872B2", "about": "“Polymer conjugates of nesiritide peptides” (priority 2008, dated 2013)", "key": {"[1]": {"assay": "Pharmacokinetic study after a single intravenous dose in rats (noncompartmental analysis of plasma concentrations)", "details": "for Cmax: test article in plasma (non-released PEG-BNP, or native BNP), equivalent protein mass 0.459 mg/kg IV", "description": "(§1) Thirty one (31) adult male Sprague-Dawley rats with indwelling jugular vein and carotid artery catheters (JVC/CAC) (Charles River Labs, Hollister, Calif.) were utilized for this study. […] All animals were food fasted overnight. Prior to dosing, the rats were weighed, the tails and cage cards were labeled for identification and the doses were calculated. Anesthesia was induced and maintained with 3.0-5.0% isoflurane. The JVC and CAC were externalized and flushed with HEP/saline (10 IU/mL HEP/mL saline). The predose sample was collected from the JVC and the catheters were plugged, and labeled to identify the jugular vein and carotid artery. When all of the animals had recovered from anesthesia and the predose samples were processed, the animals were dosed, intravenously (IV) via the JVC using a 1 mL syringe containing the appropriate test article and the dead volume of the catheter was flushed with 0.9% saline to ensure the animals received the correct dose.\n(§2) Following a single IV dose, blood samples were collected from groups 1A, 2A, 3A and 4A, at 0 (pre-dose collected as described above), 0.03, 0.33, 2.0, 6.0, 12.0 and 72.0 hours and from Groups 1B, 2B, 3B and 4B at 0 (pre-dose collected as described above), 0.17, 1.0, 4.0, 8.0, 24.0 and 48.0 hours via the carotid artery catheter and processed as stated in the protocol. Following the last collection point, the animals were euthanized.\n(§3) Concentrations in plasma that were below LLOQ were replaced with zeros prior to generating Tables and PK analysis. In the event that more than half (>50%) of the data points were below zero, mean concentration will not be shown in the figures or used in PK parameters estimation. The following PK parameters were estimated using plasma concentration-time profile of each animal:"}, "[2]": {"details": "rat, in vivo, iv", "description": "as §1, §2, §3"}, "[3]": {"details": "non-released PEG-BNP in plasma, 0.459 mg/kg IV, Sprague Dawley rats"}, "[4]": {"details": "BNP in plasma (released from conjugate or given as native BNP), 0.459 mg/kg IV, rats"}}, "note": "“Also recorded” adds a separate entry of the source. Like-named read-outs stand apart in the source and are kept apart here."}
{"compound": "CC[C@H](C)[C@@H]1NC(=O)[C@H](CCCNC(=N)N)NC(=O)[C@H](CC(=O)O)NC(=O)[C@H](CCSC)NC(=O)[C@H](CCCCN)NC(=O)[C@H](CCCNC(=N)N)NC(=O)CNC(=O)[C@H](Cc2ccccc2)NC(=O)[C@@H](NC(=O)CNC(=O)[C@H](CO)NC(=O)CNC(=O)[C@H](CCC(N)=O)NC(=O)[C@@H](NC(=O)[C@H](CCSC)NC(=O)[C@H](CCCCN)NC(=O)[C@@H]2CCCN2C(=O)[C@@H](N)CO)C(C)C)CSSC[C@@H](C(=O)N[C@@H](CCCCN)C(=O)N[C@H](C(=O)N[C@@H](CC(C)C)C(=O)N[C@@H](CCCN=C(N)N)C(=O)N[C@@H](CCCN=C(N)N)C(=O)N[C@@H](Cc2cnc[nH]2)C(=O)O)C(C)C)NC(=O)CNC(=O)[C@H](CC(C)C)NC(=O)CNC(=O)[C@H](CO)NC(=O)[C@H](CO)NC(=O)[C@H](CO)NC(=O)[C@H](CO)NC1=O", "note": "[BNP, Nesiritide]", "values": [{"measurement": "measurable BNP in plasma (in words)", "setting": "[1]; following parent BNP administration IV, rats", "value": "No measurable plasma concentrations; also recorded: No BNP was measurable"}, {"measurement": "Cmax", "setting": "[2]; 0.459 mg/kg", "value": 0.00, "unit": "ng/mL"}]}
{"compound": "ButyrALD-10K-BNP: non-releasable mono-PEG conjugate (N-terminus directed) of BNP-32 with mPEG-Butyr-ALD-10K", "values": [{"measurement": "AUCINF", "setting": "[1]; [3]", "value": 96.6, "unit": "ng·h/mL"}, {"measurement": "CL", "setting": "[1]; [3]", "value": 79.17, "unit": "mL/min/kg"}, {"measurement": "MRTlast", "setting": "[1]; [3]", "value": 0.368, "unit": "h"}, {"measurement": "T½", "setting": "[1]; [3]", "value": 0.272, "unit": "h"}, {"measurement": "Vss", "setting": "[1]; [3]", "value": 2.27, "unit": "L/kg"}, {"measurement": "Cmax", "setting": "[1]; Sprague Dawley rats", "value": 355, "unit": "ng/mL"}]}
{"compound": "ButyrALD-40K-BNP: non-releasable mono-PEG conjugate (N-terminus directed) of BNP-32 with mPEG2-Butyr-ALD 40 kDa", "values": [{"measurement": "clearance compared with ButyrALD-10K-BNP (in words)", "setting": "[1]; non-releasable PEG constructs, IV, rats", "value": "lower"}, {"measurement": "half-life compared with ButyrALD-10K-BNP (in words)", "setting": "[1]; non-releasable PEG constructs, IV, rats, pooled data", "value": "longer"}, {"measurement": "AUCINF", "setting": "[1]; [3]", "value": 41300, "unit": "ng·h/mL"}, {"measurement": "CL", "setting": "[1]; [3]", "value": 0.185, "unit": "mL/min/kg"}, {"measurement": "MRTlast", "setting": "[1]; [3]", "value": 24.0, "unit": "h"}, {"measurement": "T½", "setting": "[1]; [3]", "value": 26.1, "unit": "h"}, {"measurement": "Vss", "setting": "[1]; [3]", "value": 0.631, "unit": "L/kg"}, {"measurement": "Cmax", "setting": "[1]; Sprague Dawley rats", "value": 1410, "unit": "ng/mL"}, {"measurement": "peak plasma concentration compared with ButyrALD-10K-BNP (in words)", "setting": "[2]", "value": "higher"}]}
{"compound": "C2-FMOC-PEG2-40K-BNP: releasable mono-PEG conjugate of BNP-32 made with mPEG2-C2-fmoc-NHS-40K; hydrolysis generates unmodified peptide", "values": [{"measurement": "AUCINF", "setting": "[1]; [4]", "value": 162, "unit": "ng·h/mL"}, {"measurement": "MRTlast", "setting": "[1]; [4]", "value": 1.84, "unit": "h"}, {"measurement": "Tmax", "setting": "[1]; [4]", "value": 0.33, "unit": "h"}, {"measurement": "half-life of the conjugate in plasma", "setting": "[1]; intact C2-FMOC-PEG2-40K-BNP in plasma, IV, rats", "value": 15.0, "unit": "h"}, {"measurement": "Peak concentrations of the conjugate in plasma", "setting": "[2]; male, Sprague-Dawley", "value": 1300, "unit": "ng/mL"}, {"measurement": "time of peak concentrations of released BNP", "setting": "[2]", "value": 0.3, "unit": "h"}, {"measurement": "plasma conjugate concentrations remained above", "setting": "[2]; 24 h", "value": "above 100 ng/mL"}]}
